Measurements reported in the supplement of paper PMC9170038.

Test system: K4 kissing-loop RNA reporter
Assay: apparent KD of K4 kissing-loop reporter; higher = weaker reporter binding
Conditions: Eterna round: R107
Experimental: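 RNA-MaP round R107: designed RNA switches with theophylline, tryptophan, arginine or FMN aptamers are transcribed on-chip within common flanks. They are titrated with a labelled K4 kissing-loop RNA reporter in RNA-MaP buffer (100 mM Tris pH 7.5, 80 mM KCl, 4 mM MgCl2), without ligand or with the indicated ligand. Median apparent KD per design.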

[1] = input ligand: theophylline 20 uM
[2] = input ligand: tryptophan 2.4 mM
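Also: bound reporter read as fluorescence of individual clusters on recovered sequencing chips by microscopy, with normalized cluster intensities fitted with a binding model.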

| Sequence | apparent KD of K4 kissing-loop reporter (input ligand: FMN 200 uM) | apparent KD of K4 kissing-loop reporter (input ligand: arginine 13.2 mM) | apparent KD of K4 kissing-loop reporter (input ligand: none) | apparent KD of K4 kissing-loop reporter [1] | apparent KD of K4 kissing-loop reporter [2] |
| --- | --- | --- | --- | --- | --- |
| GCCGUAGAUUGAAGGAGCGCCGCACAUGUCCCGCUUAGUGUAGUGAUGUUACAGUGUCAGCGGCAGGUAGGUCGCAAUCUACGGC | 85.8 nM | 183 nM | 225 nM | 123 nM | 218 nM |
| GCCGUAGAUUGAAGGAGCGCUAGUCUACGAUGACACACAGUGAUGUUGUGCGUGAUUUCAUAGCAGGUAGGUCGCAAUCUACGGC | 230 nM | 195 nM | 214 nM | 186 nM | 183 nM |
| GCCGUAGAUUGAAGGAGCGGACUUAUAGGUCUUAAGGAGUGAUGUUCCUGACACUCGGCGGUCCAGGUAGGUCGCAAUCUACGGC | 296 nM | 269 nM | 320 nM | 252 nM | 272 nM |
| GCCGUAGAUUGAAGGAGCGUGGACCUAUCGCUUGAACAGUGAUGUUGUUUAUCUAGGGAGCCGCAGGUAGGUCGCAAUCUACGGC | 470 nM | 355 nM | 478 nM | 370 nM | 386 nM |
| GCCGUAGAUUGAAGGAGCGUUCUUCAGCAUACUUGCAGUGAUGUUGCAUUUUACAUGUAAGAACAGGUAGGUCGCAAUCUACGGC | – | 119 nM | 412 nM | 40 nM | 235 nM |
| GCCUAGCAGCGAAGGAGCGCCAGGAGAAGAAAUGGAGAGAGUUGAGUGAUGUUCAAAUGGUGGCAGGUAGGUCGCGCUGCUAGGC [#08 K4 Arginine B Same State] | 559 nM | 261 nM | 432 nM | 444 nM | 377 nM |
| GCGCAUGUUAAAGGAUAUAGCAGGUGAUACAAGAAAGUGAGUGAUGUUUAUGUAGAUGAUGAUAUGUUAGAAGGUUAACAAACGC [abcdefghijklmno] | 922 nM | 624 nM | 809 nM | 867 nM | 564 nM |
| GCGCGUCAUGUCAGCGGUGACACUGUCGAUACCAGCGCCGAAAGGCGCCCUUGGCAGCGACGUGCUGGAGUGAUGUUCCAGCGUG [#2 Exclusion - Theophylline A Attempt #25 (HarryS)] | 197 nM | 160 nM | 182 nM | 203 nM | 184 nM |
| GCGCGUCAUGUCAGCGGUGACACUGUCGAUACCAGUGCCGUAAGGCGCCCUUGGCAGCGACGUGCUGGAGUGAUGUUCCAGCGUU [#2 Exclusion - Theophylline A Attempt #31 (HarryS)] | 143 nM | 132 nM | 153 nM | 154 nM | 146 nM |
| GCGGCGGGCCAAGGAUAUAUAUUGGAGUGAUGUUGUUCAUUUAUUUGAGCUAGUGAUGUUGGUCAGAUAGAAGGUGGCCCGCCGC [whbob_Ex_FMNB__2th216] | 76.3 nM | 30.1 nM | 51.1 nM | 46.2 nM | 46.4 nM |
| GCGGGCCAGACGGCCGCCACUCCGGGCAGUGAUGUUGCGAAUCUUCUACUAGAGUGAUGUUCUACGAGGACCGGGUCGGAACGCG [Exclusion Tryptophan B Gf 14] | 458 nM | 384 nM | 569 nM | 502 nM | 289 nM |
| GCGUCUGUCGGAAGGAGCGCACUAUGGAGUGAUGUUCCAUGACCGCACAGCUUGCGGUCAGUGCAGGUAGGUCGCCGAUAGCGUU [Diestera] | 161 nM | 157 nM | 154 nM | 190 nM | 144 nM |
| GCUAUGGUAGGAAGGAGCGCGGACGAAAUUUAUCGAGUGAUGUUCGAAUAAUUAAAUAAAACGCAGGUAGGUCGCCUACUAUAGC [Arginine B K4 26] | 101 nM | 97.5 nM | 97.5 nM | 95.5 nM | 75.7 nM |
| GCUAUGGUAGGAAGGAGCGCUACCUUGUUUUUACGAGUGAUGUUCGGAAGCAGGGUGUUAAAGCAGGUAGGUCGCCUACUAUAGC [Arginine B K4 21] | 192 nM | 178 nM | 167 nM | 205 nM | 176 nM |
| GCUAUGGUAGGAAGGAGCGCUGCCUUGUUUUUACGAGUGAUGUUCGGAAGCAGGGUGUUAAAGCAGGUAGGUCGCCUACUAUAGC [Arginine B K4 23] | 191 nM | 121 nM | 160 nM | 172 nM | 155 nM |
| GCUAUGGUAGGAAGGAGCGCUUAUUUAUUUUUAAGAGUGAUGUUCGAUAGUAGAUAUUUAAAGCAGGUAGGUCGCCUACUAUAGC [Arginine B K4 13] | 122 nM | 159 nM | 108 nM | 136 nM | 71.5 nM |
| GGACCUCAGUGAUGUUGAGGUAACACUGAUACCAGCGACUUAAUUCGCCCUUGGCAGCAGUCCACCGAGGUAUCUGAUUAGGUCU [#23 K4 Theophylline A Exclusion] | 211 nM | 220 nM | 216 nM | 287 nM | 190 nM |
| GGAGAGGUCUUGUUUGGAUGUGAUUAAUGGCGAGGACCGGUACGGCCGCCACUCGGGUGAUGUUAGUGAUGUUGAUGUAGUGAUG [uyumullin] | 150 nM | 103 nM | 114 nM | 206 nM | 109 nM |
| GGAGCAGUGAUGUUGCUUGUAAUGCAUUCAGAGGAUAUUCGUUUGGGAAGAAGGCUGAAUCGUUCUUCGAGUGAUGUUCGAGGAU [Same State FMN A GF 16] | 154 nM | 154 nM | 156 nM | 148 nM | 138 nM |
| GGAGGAGAAUAUGAUACCAGCAGAGAGAGAGAGGAAGUAUAGUGAUGUUAUAUGUGAGAAUGCCCUUGGCAGCAUAACAAGAAGG [whbob_SS_Theo_B_sa88] | 121 nM | 225 nM | 194 nM | 116 nM | 122 nM |
| GGAUAGGACAGAGGAUAUGGGCUAGGCAAGAAUAACUUGUCUAGCAAAUCCAUGAGGAGUGAUGUUCCAGAAGGCUGUCCUAUCG [FmnBX 1 - #SwitchBubble #StraticStem #DoubleMagnetSystem] | 375 nM | 167 nM | 114 nM | 177 nM | 143 nM |
| GGAUAGGACAUAGGAUAUGGUAGUGAUGUUACCAAACUGGUUAAACAUGUCAGAAAACUGGCAUGACCAGAAGGAUGUCCUAUCG [FmnBX 27 U11+A75] | 85.2 nM | 63.2 nM | 66.3 nM | 58.8 nM | 63.5 nM |
